The target in the experiment is Trichoplusia ni acetyl-coenzyme A carboxylase (Trichoplusia ni (endogenous in T. ni cells)). The experiment can be described thus: cryo-EM structure; endogenous T. ni ACC (~2 uM) in 25 mM Hepes pH 8.0, 150 mM NaCl, 1 mM TCEP; refined with C2 symmetry to 3.12 Å; only the CT domain (1622-2396) modelled.

For orientation: stoichiometry N means a count of units in the complex or per binding partner.

As to “Trichoplusia ni acetyl-coenzyme A carboxylase”, the stoichiometry N was 2.

(Values after paper PMC11735997.)
